IntAct's records for PubMed 19400808

B1: Nitrogen regulatory protein (Escherichia coli (strain K12)), P69829 (parent)
chain: MTNNDTTLQLSSVLNRECTRSRVHCQSKKRALEIISELAAKQLSLPPQVVFEAILTREKMGSTGIGNGIAIPHGKLEEDTLRAVGVFVQLETPIAFDAIDNQPVDLLFALLVPADQTKTHLHTLSLVAKRLADKTICRRLRAAQSDEELYQIITDTEGTPDEA
partner: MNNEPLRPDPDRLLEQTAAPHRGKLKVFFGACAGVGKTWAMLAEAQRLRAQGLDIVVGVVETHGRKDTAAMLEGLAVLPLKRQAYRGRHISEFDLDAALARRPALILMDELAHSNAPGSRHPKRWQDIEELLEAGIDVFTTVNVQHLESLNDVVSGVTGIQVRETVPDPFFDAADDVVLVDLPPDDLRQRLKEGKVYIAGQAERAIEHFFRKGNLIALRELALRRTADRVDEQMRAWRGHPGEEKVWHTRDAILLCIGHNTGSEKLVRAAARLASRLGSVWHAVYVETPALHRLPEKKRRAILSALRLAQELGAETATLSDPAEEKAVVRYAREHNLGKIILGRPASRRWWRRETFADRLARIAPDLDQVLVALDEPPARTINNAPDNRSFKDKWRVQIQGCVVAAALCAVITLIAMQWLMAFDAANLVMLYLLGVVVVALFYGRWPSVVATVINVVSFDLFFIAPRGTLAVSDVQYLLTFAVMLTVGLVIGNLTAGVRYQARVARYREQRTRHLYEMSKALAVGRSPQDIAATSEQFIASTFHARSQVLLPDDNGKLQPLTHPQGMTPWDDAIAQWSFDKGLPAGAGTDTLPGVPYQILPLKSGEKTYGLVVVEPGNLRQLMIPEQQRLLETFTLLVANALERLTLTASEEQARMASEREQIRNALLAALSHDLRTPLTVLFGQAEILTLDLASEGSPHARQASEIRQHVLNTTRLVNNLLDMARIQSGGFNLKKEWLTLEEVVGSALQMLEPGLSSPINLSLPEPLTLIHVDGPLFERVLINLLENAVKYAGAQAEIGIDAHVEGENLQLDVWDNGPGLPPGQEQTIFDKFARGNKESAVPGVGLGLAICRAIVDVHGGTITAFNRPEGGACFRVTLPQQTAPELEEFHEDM

Variants of: B1
Conditions: with kdpd_ecoli kdpD

Row | Variant | effect of a mutation on the interaction
1 | H73A | increasing interaction strength
